Biological target: recombinant human PCSK9, V5-, His-tagged (human, UniProt Q8NBP7 31-692)
Assay: cell-based or functional assay

recombinant human PCSK9, V5-, His-tagged, sequence (Q8NBP7 31-692 limits assumed): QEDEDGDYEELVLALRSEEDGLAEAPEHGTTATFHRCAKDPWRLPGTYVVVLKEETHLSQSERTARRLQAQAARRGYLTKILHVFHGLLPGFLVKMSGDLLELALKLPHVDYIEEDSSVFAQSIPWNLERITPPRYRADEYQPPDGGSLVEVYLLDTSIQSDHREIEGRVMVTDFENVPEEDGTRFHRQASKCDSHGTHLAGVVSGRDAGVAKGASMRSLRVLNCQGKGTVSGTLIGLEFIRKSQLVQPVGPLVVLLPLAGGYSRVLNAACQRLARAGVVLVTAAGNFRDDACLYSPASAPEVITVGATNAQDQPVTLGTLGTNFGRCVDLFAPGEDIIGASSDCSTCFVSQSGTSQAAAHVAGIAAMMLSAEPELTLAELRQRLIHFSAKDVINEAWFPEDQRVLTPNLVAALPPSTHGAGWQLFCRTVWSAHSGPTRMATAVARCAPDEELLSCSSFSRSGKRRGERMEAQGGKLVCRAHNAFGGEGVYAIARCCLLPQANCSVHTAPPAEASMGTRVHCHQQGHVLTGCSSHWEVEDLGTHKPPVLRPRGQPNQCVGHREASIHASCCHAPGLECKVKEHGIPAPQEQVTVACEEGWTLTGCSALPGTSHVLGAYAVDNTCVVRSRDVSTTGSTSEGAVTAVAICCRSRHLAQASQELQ

IC50, Exopolar assay: reversal of PCSK9-dependent loss of cellular diI-LDL uptake, Fab titrated against fixed PCSK9 (25 µg/ml): 269 nM
B1: 3CX3D02 (Fab, V domains shown)
VH: QVQLVQSGAEVKKPGESLKISCKGSGYSFTNSWIGWVRQMPGKGLEWMGIIYPSDSYTIYSPSFQGQVTISADKSISTAYLQWSSLKASDTAMYYCARGGGYYYALMDVWAQGTLVTVSS
VL: DIQMTQSPSSLSASVGDRVTITCRASQTISTWLNWYQQKPGKAPKLLIYAASSLQSGVPSRFSGSGSGTDFTLTISSLQPEDFATYYCLQDSSLPLTFGQGTKVEIKR

Reference: patent publication US20130189278A1 (Merck Sharp & Dohme, published 2013)
